This note sets out measurements from patent publication WO2019077951A1 (dated 2019).

The assay concerns the target T1, full-length MUC1 (amino acid sequence of SEQ ID NO: 27) (human (human cervical cancer cell line …, UniProt P15941 24-1255, limits assumed)).
T1 construct: Full-length protein from cell extract on a Western blot membrane
Kind of assay: Western blotting. In general terms: In western blotting, separated proteins are transferred to a membrane and probed.

T1 sequence (P15941 other isoform, or with tags, fused parts or gaps limits assumed): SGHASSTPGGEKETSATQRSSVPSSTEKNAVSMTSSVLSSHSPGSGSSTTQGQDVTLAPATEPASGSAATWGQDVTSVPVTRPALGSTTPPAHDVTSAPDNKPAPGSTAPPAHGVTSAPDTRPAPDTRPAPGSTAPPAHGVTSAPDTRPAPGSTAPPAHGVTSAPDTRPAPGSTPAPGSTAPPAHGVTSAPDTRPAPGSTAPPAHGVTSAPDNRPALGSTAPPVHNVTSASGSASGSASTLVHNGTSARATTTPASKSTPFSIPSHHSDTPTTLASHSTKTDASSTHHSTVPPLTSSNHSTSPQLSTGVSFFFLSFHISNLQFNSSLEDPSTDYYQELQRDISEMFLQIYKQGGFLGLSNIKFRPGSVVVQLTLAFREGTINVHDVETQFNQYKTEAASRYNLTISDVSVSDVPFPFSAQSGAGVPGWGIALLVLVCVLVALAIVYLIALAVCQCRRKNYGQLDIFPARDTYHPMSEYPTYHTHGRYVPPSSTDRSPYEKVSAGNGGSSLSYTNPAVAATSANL

B1: anti-MUC1 monoclonal antibody (antibody, V domains shown)
VH: EVKLEESGGGLVQPGGSMKLSCVASGFSFSDYWMNWVRQSPDKGLEWISDIRLKSYNYATHYAESVKGRFTISRDDSKSGVYLQMNNLRAEDTGLYYCTFGNSFAYWGQGTLVTVSA
VL: QAVVTQESALTTSPGETVTLTCRSSTGAVTTSNYANWVQEKPDHLFTGLIGGTNNRAPGVPARFSGSLIGDKAALTITGAQTEDEAIYFCALWYSNHWVFGGGTKLTVLG
notes: also called MUC1 antibody
Consider B1, for which the binding result is “binds”.
